Test results published in the Immune Epitope Database (IEDB).

How the values were obtained:
HLA-A*01:01 = assay: IEDB peptide-MHC binding, purified MHC/direct/fluorescence; filed as Kd, often an IC50 or EC50 that approximates it; ≥ and ≤ were set here for values at or beyond the usual limits of such assays
HLA-A*02:01 [1] = assay: as above
HLA-A*03:01 = assay: as above
HLA-A*11:01 = assay: as above
HLA-A*26:01 = assay: as above
HLA-A*31:01 = assay: as above
HLA-A*69:01 = assay: as above
HLA-B*07:02 = assay: as above
HLA-B*08:02 = assay: as above; details: source organism: Burkholderia mallei ATCC 23344
HLA-B*15:01 = assay: as above
HLA-B*15:17 = assay: as above
HLA-B*18:01 = assay: as above; details: source organism: Burkholderia mallei
HLA-B*27:05 = assay: as above
HLA-B*38:01 = assay: as above; details: source organism: Burkholderia mallei ATCC 23344
HLA-B*39:01 [2] = assay: as above; details: source organism: Burkholderia mallei ATCC 23344
HLA-B*40:01 = assay: as above; details: source organism: Burkholderia mallei
HLA-B*46:01 [3] = assay: as above
HLA-B*48:01 = assay: as above
HLA-B*51:01 = assay: as above; details: source organism: Burkholderia mallei
HLA-B*57:01 [4] = assay: as above
HLA-B*58:01 [5] = assay: as above
HLA-B*15:02 [6] = assay: IEDB peptide-MHC binding, purified MHC/competitive/fluorescence; filed as Kd, often an IC50 or EC50 that approximates it; ≥ and ≤ were set here for values at or beyond the usual limits of such assays; details: source organism: Homo sapiens
HLA-B*46:01 [7] = assay: as above; details: source organism: Homo sapiens
HLA-A*02:01 [8] = assay: IEDB peptide-MHC binding, purified MHC/competitive/radioactivity; filed as Kd, often an IC50 or EC50 that approximates it; ≥ and ≤ were set here for values at or beyond the usual limits of such assays; details: source organism: Homo sapiens
HLA-A*02:07 = assay: as above; details: source organism: Homo sapiens
HLA-A*29:02 = assay: as above; details: source organism: Homo sapiens
HLA-B*57:01 [9] = assay: as above; details: source organism: Homo sapiens
HLA-B*58:01 [10] = assay: as above; details: source organism: Homo sapiens
HLA-B*58:01 [11] = assay: IEDB peptide-MHC binding, cellular MHC/competitive/fluorescence; ≥ and ≤ were set here for values at or beyond the usual limits of such assays; details: source organism: Human herpesvirus 4 strain B95-8
HLA-A*68:02 = assay: IEDB peptide-MHC binding, purified MHC/direct/fluorescence; filed as Kd, often an IC50 or EC50 that approximates it; ≥ and ≤ were set here for values at or beyond the usual limits of such assays
HLA-B*08:03 = assay: as above
HLA-B*15:02 [12] = assay: as above
HLA-A*02:01 [13] = assay: IEDB peptide-MHC binding, purified MHC/competitive/fluorescence; filed as Kd, often an IC50 or EC50 that approximates it; ≥ and ≤ were set here for values at or beyond the usual limits of such assays; details: source organism: Giardia lamblia ATCC 50803
HLA-A*02:03 = assay: as above
HLA-A*30:01 = assay: as above
HLA-B*08:01 = assay: as above
HLA-B*15:09 [14] = assay: as above; details: source organism: Giardia lamblia ATCC 50803
HLA-B*15:09 [15] = assay: IEDB peptide-MHC binding, purified MHC/direct/fluorescence; filed as Kd, often an IC50 or EC50 that approximates it; ≥ and ≤ were set here for values at or beyond the usual limits of such assays; details: source organism: Vibrio vulnificus CMCP6
HLA-A*32:07 = assay: IEDB peptide-MHC binding, purified MHC/competitive/fluorescence; filed as Kd, often an IC50 or EC50 that approximates it; ≥ and ≤ were set here for values at or beyond the usual limits of such assays; details: source organism: Vibrio vulnificus YJ016
HLA-B*15:42 = assay: as above; details: source organism: Vibrio vulnificus YJ016
HLA-B*27:20 = assay: as above; details: source organism: Vibrio vulnificus YJ016
HLA-B*39:01 [16] = assay: as above; details: source organism: Vibrio vulnificus YJ016
HLA-B*40:13 = assay: as above; details: source organism: Vibrio vulnificus YJ016
HLA-B*45:06 = assay: as above; details: source organism: Vibrio vulnificus YJ016
HLA-B*83:01 = assay: as above; details: source organism: Vibrio vulnificus YJ016
[17] = source organism: Burkholderia mallei
[18] = source organism: Giardia lamblia ATCC 50803
[19] = source organism: Vibrio vulnificus
[20] = source organism: Vibrio vulnificus CMCP6
[21] = source organism: Vibrio vulnificus YJ016

AVAVARVAA
Kd (HLA-A*01:01; [17]): ≥ 20 µM
Kd (HLA-A*02:01 [1]; [17]): ≥ 20 µM
Kd (HLA-A*03:01; [17]): ≥ 20 µM
Kd (HLA-A*11:01; [17]): ≥ 20 µM
Kd (HLA-A*26:01; source organism: Burkholderia mallei ATCC 23344): ≥ 20 µM
Kd (HLA-A*31:01; [17]): ≥ 20 µM
Kd (HLA-A*69:01; [17]): ≥ 20 µM
Kd (HLA-B*07:02; [17]): 0.217 µM
Kd (HLA-B*08:02): ≥ 20 µM
Kd (HLA-B*15:01; [17]): 4.21 µM
Kd (HLA-B*15:17; [17]): ≥ 20 µM
Kd (HLA-B*18:01): ≥ 20 µM
Kd (HLA-B*27:05; [17]): ≥ 20 µM
Kd (HLA-B*38:01): ≥ 20 µM
Kd (HLA-B*39:01 [2]): ≥ 20 µM
Kd (HLA-B*40:01): ≥ 20 µM
Kd (HLA-B*46:01 [3]; [17]): ≥ 20 µM
Kd (HLA-B*48:01; [17]): ≥ 20 µM
Kd (HLA-B*51:01): ≥ 20 µM
Kd (HLA-B*57:01 [4]; [17]): ≥ 20 µM
Kd (HLA-B*58:01 [5]; [17]): ≥ 20 µM

FIKDGSSTY
Kd (HLA-B*15:02 [6]): 0.0039 µM
Kd (HLA-B*46:01 [7]): 0.0167 µM
Kd (HLA-A*02:01 [8]): ≥ 78.1 µM
Kd (HLA-A*02:07): ≥ 62.7 µM
Kd (HLA-A*29:02): 0.516 µM
Kd (HLA-B*57:01 [9]): ≥ 61.3 µM
Kd (HLA-B*58:01 [10]): ≥ 39.8 µM

LSIFDTSLF
IC50 (HLA-B*58:01 [11]): 5 µM

QLKQRDALF
Kd (HLA-A*01:01; [18]): ≥ 20 µM
Kd (HLA-A*11:01; [18]): ≥ 20 µM
Kd (HLA-A*26:01; [18]): ≥ 20 µM
Kd (HLA-A*31:01; [18]): ≥ 20 µM
Kd (HLA-A*68:02; [18]): ≥ 20 µM
Kd (HLA-A*69:01; [18]): ≥ 20 µM
Kd (HLA-B*07:02; [18]): ≥ 20 µM
Kd (HLA-B*08:03; [18]): 0.17 µM
Kd (HLA-B*15:01; [18]): 0.027 µM
Kd (HLA-B*15:02 [12]; [18]): 0.029 µM
Kd (HLA-B*15:17; [18]): 0.0657 µM
Kd (HLA-B*27:05; [18]): ≥ 20 µM
Kd (HLA-B*46:01 [3]; [18]): ≥ 20 µM
Kd (HLA-B*48:01; [18]): ≥ 20 µM
Kd (HLA-B*57:01 [4]; [18]): 1.46 µM
Kd (HLA-B*58:01 [5]; [18]): ≥ 20 µM
Kd (HLA-A*02:01 [13]): ≥ 20 µM
Kd (HLA-A*02:03; [18]): ≥ 20 µM
Kd (HLA-A*30:01; [18]): ≥ 20 µM
Kd (HLA-B*08:01; [18]): 0.135 µM
Kd (HLA-B*15:09 [14]): ≥ 20 µM

YQRALHTSI
Kd (HLA-A*01:01; [19]): ≥ 20 µM
Kd (HLA-A*02:01 [1]; [19]): ≥ 20 µM
Kd (HLA-A*03:01; [19]): ≥ 20 µM
Kd (HLA-A*11:01; [19]): ≥ 20 µM
Kd (HLA-A*26:01; [20]): ≥ 20 µM
Kd (HLA-A*31:01; [19]): ≥ 20 µM
Kd (HLA-A*68:02; [19]): ≥ 20 µM
Kd (HLA-A*69:01; [19]): ≥ 20 µM
Kd (HLA-B*07:02; [19]): 7.06 µM
Kd (HLA-B*08:03; [20]): 0.055 µM
Kd (HLA-B*15:01; [19]): 0.0962 µM
Kd (HLA-B*15:02 [12]; [20]): 0.306 µM
Kd (HLA-B*15:09 [15]): ≥ 20 µM
Kd (HLA-B*15:17; [19]): 0.13 µM
Kd (HLA-B*27:05; [19]): 2.05 µM
Kd (HLA-B*46:01 [3]; [19]): ≥ 20 µM
Kd (HLA-B*48:01; [19]): 0.0586 µM
Kd (HLA-B*57:01 [4]; [19]): ≥ 20 µM
Kd (HLA-B*58:01 [5]; [19]): ≥ 20 µM
Kd (HLA-A*02:03; [21]): 0.0021 µM
Kd (HLA-A*30:01; [21]): 1.12 µM
Kd (HLA-A*32:07): 0.454 µM
Kd (HLA-B*08:01; [21]): 0.292 µM
Kd (HLA-B*15:42): ≥ 20 µM
Kd (HLA-B*27:20): 0.0002 µM
Kd (HLA-B*39:01 [16]): 0.395 µM
Kd (HLA-B*40:13): 0.0608 µM
Kd (HLA-B*45:06): ≥ 5 µM
Kd (HLA-B*83:01): ≥ 5 µM
